Assay results: patent publication US20070098681A1 (published 2007)
Where a chain is given by its changes, count along the chain named.

Legend:
[1] = molecular target: DR5-IgG (human); test: BIAcore SPR; KD relative to Flag.Apo2L.WT
[2] = molecular target: T1, DR4-IgG (human); test: BIAcore SPR; KD relative to Flag.Apo2L.WT
T1 construct: Mature DR4 ECD (amino acids 1-218); Made in human 293 cells; also called DR4 receptor immunoadhesin

[3] = molecular target: T1, DR4-IgG; test: AlphaQuest displacement of biotinylated Apo2L/TRAIL from receptor-IgG; ratio to Flag-Apo2L.WT
Source text: (§1) This assay produces a signal when a “donor” and “acceptor” bead are brought in close proximity facilitating singlet oxygen-mediated, fluorescence resonance energy transfer. […] The acceptor bead is coated with Staphylococcal Protein A and is used to capture the receptor-IgG protein.

[4] = molecular target: T2, DcR2-IgG (UniProt Q9UBN6 56-211, limits assumed); test: as above
T2 construct: not shown: IgG portion, not described
T2 sequence (looked up): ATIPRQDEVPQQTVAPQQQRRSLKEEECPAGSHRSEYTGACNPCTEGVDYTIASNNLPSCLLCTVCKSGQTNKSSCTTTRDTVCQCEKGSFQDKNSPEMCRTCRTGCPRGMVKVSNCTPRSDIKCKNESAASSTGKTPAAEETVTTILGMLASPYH
Source text: as §1

[5] = molecular target: T3, DcR1 receptor-IgG (UniProt O14798 26-236, limits assumed); test: as above
T3 construct: Receptor-IgG protein captured on Protein A acceptor beads; construct not described; not shown: IgG portion, not described
T3 sequence (looked up): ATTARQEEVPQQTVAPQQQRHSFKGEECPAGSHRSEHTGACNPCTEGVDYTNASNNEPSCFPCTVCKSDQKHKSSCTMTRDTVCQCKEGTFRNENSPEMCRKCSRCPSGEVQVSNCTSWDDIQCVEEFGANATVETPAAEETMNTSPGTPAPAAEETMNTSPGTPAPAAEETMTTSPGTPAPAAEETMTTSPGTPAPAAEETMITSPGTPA
Source text: as §1

[6] = molecular target: T1, DR4-IgG; test: BIAcore SPR, receptor-IgG immobilised
Description: (§2) Briefly, dissociation constants (Kd) for binding of Apo-2L variants (see Tables II and III) to immobilized receptor immunoadhesins were determined from surface plasmon resonance (SPR) measurements on a Pharmacia BIAcore 3000. DR5-IgG (also referred to as Apo-2-IgG) and DcR2-IgG receptor immunoadhesins were prepared as described in WO98/51793 published November 19, 1998 and WO99/10484 published Mar. 9, 1999, respectively. DR4-IgG was prepared as follows. A mature DR4 ECD sequence (amino acids 1-218; Pan et al., supra) was cloned into a pCMV-1 Flag vector (Kodak) downstream of the Flag signal sequence and fused to the CH1, hinge and Fc region of human immunoglobulin G₁ heavy chain as described previously [Aruffo et al., Cell, 61:1303-1313 (1990)]. The immunoadhesin was expressed by transient transfection into human 293 cells and purified from the cell supernatants by protein A affinity chromatography, as described by Ashkenazi et al., Proc. Natl. Acad. Sci., 88:10535-10539 (1991)]. The receptor immunoadhesin proteins were coupled to the sensor chip surface at a level of 300-500 resonance units using amine coupling chemistry (Pharmacia Biosensor). Sensorgrams were recorded for Apo-2L binding at concentrations ranging from 15.6 nM to 500 nM in 2-fold increments. The kinetics constants were determined by non-linear regression analysis and used to calculate the binding constants.
(§3) These variants were expressed and purified, the purified proteins were assayed for receptor-binding by BIAcore® and bioactivity on SK-MES lung carcinoma cells, as previously described (see, e.g. Hymowitz et al. (2000) Biochemistry 39, 633-640).

[7] = molecular target: T4, DR5-IgG (human); test: BIAcore SPR, receptor-IgG immobilised
T4 construct: also called Apo-2-IgG
Description: as §2, §3

[8] = molecular target: DR5-IgG (human); test: AlphaQuest displacement of biotinylated Apo2L/TRAIL from receptor-IgG; ratio to Flag-Apo2L.WT
Source text: as §1

[9] = molecular target: DR5-IgG (human); test: BIAcore SPR, receptor-IgG immobilised; ratio to wild-type Apo2L/TRAIL(114-281)
Description: as §2

[10] = molecular target: T1, DR4-IgG; test: as above
Description: as §2

[11] = molecular target: T4, DR5-IgG; test: as above
Description: as §2

[12] = molecular target: T4, DR5-IgG; test: BIAcore SPR; KD relative to Flag.Apo2L.WT
[13] = molecular target: T4, DR5-IgG; test: AlphaQuest displacement of biotinylated Apo2L/TRAIL from receptor-IgG; ratio to Flag-Apo2L.WT
Source text: as §1

[14] = molecular target: DR5-IgG (human); test: BIAcore SPR, receptor-IgG immobilised
Description: as §2, §3

B1: Flag-Apo2L.DR4-8 (ligand)
chain: VRERGPQRVAAHITGTRGRSNTLSSPNSKNEKALGRKINSWESSRSGHSFLSNLHLRNGELVIHEKGFYYIYSQTAFRFSEEIKEVTRNDKQMVQYIYKWTDYPDPILLMKSARNSCWSKDAEYGLYSIYQGGIFELKENDRIFVSVTNEHLIDMDHEASFFGAFLVG
KD ratio (mut/wt) [1]: 1100 ratio (mut/wt)
KD ratio (mut/wt) [2]: 0.2 ratio (mut/wt)
IC50 ratio (mutant/wt) [3]: 1 ratio (mutant/wt)
IC50 ratio (mutant/wt) [4]: 15 ratio (mutant/wt)
IC50 ratio (mutant/wt) [5]: 5.5 ratio (mutant/wt)

B2: Apo2L.DR5-8 (ligand)
chain: B1 chain with A76Q, R78K, S80R, V86N, R88K, W100Y, D102S, H151R, I153L, D154Q
notes: also called Apo2L/TRAIL.DR5-8
DR4-binding (ratio relative to wild-type Apo2L) [6]: > 25 ratio relative to wild-type Apo2L
DR5-binding (ratio relative to wild-type Apo2L) [7]: 0.6 ratio relative to wild-type Apo2L

B3: Flag-Apo2L.DR5-1 (ligand)
chain: B1 chain with R78K, S80K, V86N, R88K, W100Y, D102S, H151A
KD ratio (mut/wt) [1]: 2.2 ratio (mut/wt)
KD ratio (mut/wt) [2]: 11 ratio (mut/wt)
IC50 ratio (mutant/wt) [8]: 2.4 ratio (mutant/wt)
IC50 ratio (mutant/wt) [4]: 32 ratio (mutant/wt)

B4: Flag-Apo2L.DR5-21 (ligand)
chain: B1 chain with R78K, S80K, V86N, R88K, W100Y, D102S, H151D, I153L, D154N, D156E
IC50 ratio (mutant/wt) [4]: 9.4 ratio (mutant/wt)

B5: Apo2L/TRAIL(114-281) mutant DR5-5 (ligand)
chain: B1 chain with A76S, S80T, V86N, R88K, W100Y, D102S, H151G, I153L, D156N
KD ratio (mutant/wt) [9]: 2.5 ratio (mutant/wt)
KD ratio (mutant/wt) [10]: 12.4 ratio (mutant/wt)

B6: Apo2L/TRAIL(114-281) mutant DR5-4 (ligand)
chain: B1 chain with S80R, V86N, R88K, W100Y, D102S, H151Q, I153L, D156N
KD ratio (mutant/wt) [9]: 1.3 ratio (mutant/wt)
KD ratio (mutant/wt) [10]: 3.1 ratio (mutant/wt)

B7: Flag-Apo2L.DR4-9 (ligand)
chain: B1 chain with V86R
KD ratio (mut/wt) [1]: 1200 ratio (mut/wt)
KD ratio (mut/wt) [2]: 4.3 ratio (mut/wt)
IC50 ratio (mutant/wt) [3]: 1.1 ratio (mutant/wt)
IC50 ratio (mutant/wt) [4]: 18 ratio (mutant/wt)
IC50 ratio (mutant/wt) [5]: 4 ratio (mutant/wt)

B8: Apo2L/TRAIL(114-281) mutant DR5-11 (ligand)
chain: B1 chain with S80K, V86N, R88K, W100Y, D102S, H151G, I153V, D156S
KD ratio (mutant/wt) [9]: 2.2 ratio (mutant/wt)
KD ratio (mutant/wt) [10]: 5 ratio (mutant/wt)

B9: Flag-Apo2L.DR5-2 (ligand)
chain: B1 chain with R78K, S80K, V86N, R88K, W100Y, D102S
KD ratio (mut/wt) [1]: 1.9 ratio (mut/wt)
KD ratio (mut/wt) [2]: 11 ratio (mut/wt)
IC50 ratio (mutant/wt) [8]: 2.8 ratio (mutant/wt)
IC50 ratio (mutant/wt) [4]: 5 ratio (mutant/wt)

B10: Apo2L/TRAIL(114-281) mutant DR5-23 (ligand)
chain: B1 chain with R78K, S80R, V86N, R88K, W100Y, D102S, H151S, I153L, D156E
notes: Untagged, from pAPOK5.0, purified from E. coli
KD ratio (mutant/wt) [10]: 105 ratio (mutant/wt)
KD ratio (mutant/wt) [11]: 2.4 ratio (mutant/wt)

B11: Flag-Apo2L.DR5-8 (ligand, not shown: small tags and cut ends)
chain: B1 chain with A76Q, R78K, S80R, V86N, R88K, W100Y, D102S, H151R, I153L, D154Q
modifications: N-terminal Flag epitope tag (pFLAG-MAC) is not written because its letters are not given
KD ratio (mut/wt) [12]: 0.8 ratio (mut/wt)
IC50 ratio (mutant/wt) [13]: 0.7 ratio (mutant/wt)

B12: Apo2L.DR5-8B (ligand)
chain: B1 chain with A76Q, R78K, S80R, V86N, R88K, W100Y, D102S
DR5-binding (ratio relative to wild-type Apo2L) [14]: 0.6 ratio relative to wild-type Apo2L
DR4-binding (ratio relative to wild-type Apo2L) [6]: 2.5 ratio relative to wild-type Apo2L

B13: Apo2L.DR5-8C (ligand)
chain: B1 chain with A76Q, R78K, S80R, V86N, R88K, W100Y, D102S, I153L
DR5-binding (ratio relative to wild-type Apo2L) [14]: 0.6 ratio relative to wild-type Apo2L
DR4-binding (ratio relative to wild-type Apo2L) [6]: 5.5 ratio relative to wild-type Apo2L
